B1: Flag-tagged wild type LRRK2 (leucine-rich repeat kinase 2) [human] / Full length V5-tagged FADD [not stated] (parent complex)
chain 1: MASGSCQGCEEDEETLKKLIVRLNNVQEGKQIETLVQILEDLLVFTYSERASKLFQGKNIHVPLLIVLDSYMRVASVQQVGWSLLCKLIEVCPGTMQSLMGPQDVGNDWEVLGVHQLILKMLTVHNASVNLSVIGLKTLDLLLTSGKITLLILDEESDIFMLIFDAMHSFPANDEVQKLGCKALHVLFERVSEEQLTEFVENKDYMILLSALTNFKDEEEIVLHVLHCLHSLAIPCNNVEVLMSGNVRCYNIVVEAMKAFPMSERIQEVSCCLLHRLTLGNFFNILVLNEVHEFVVKAVQQYPENAALQISALSCLALLTETIFLNQDLEEKNENQENDDEGEEDKLFWLEACYKALTWHRKNKHVQEAACWALNNLLMYQNSLHEKIGDEDGHFPAHREVMLSMLMHSSSKEVFQASANALSTLLEQNVNFRKILLSKGIHLNVLELMQKHIHSPEVAESGCKMLNHLFEGSNTSLDIMAAVVPKILTVMKRHETSLPVQLEALRAILHFIVPGMPEESREDTEFHHKLNMVKKQCFKNDIHKLVLAALNRFIGNPGIQKCGLKVISSIVHFPDALEMLSLEGAMDSVLHTLQMYPDDQEIQCLGLSLIGYLITKKNVFIGTGHLLAKILVSSLYRFKDVAEIQTKGFQTILAILKLSASFSKLLVHHSFDLVIFHQMSSNIMEQKDQQFLNLCCKCFAKVAMDDYLKNVMLERACDQNNSIMVECLLLLGADANQAKEGSSLICQVCEKESSPKLVELLLNSGSREQDVRKALTISIGKGDSQIISLLLRRLALDVANNSICLGGFCIGKVEPSWLGPLFPDKTSNLRKQTNIASTLARMVIRYQMKSAVEEGTASGSDGNFSEDVLSKFDEWTFIPDSSMDSVFAQSDDLDSEGSEGSFLVKKKSNSISVGEFYRDAVLQRCSPNLQRHSNSLGPIFDHEDLLKRKRKILSSDDSLRSSKLQSHMRHSDSISSLASEREYITSLDLSANELRDIDALSQKCCISVHLEHLEKLELHQNALTSFPQQLCETLKSLTHLDLHSNKFTSFPSYLLKMSCIANLDVSRNDIGPSVVLDPTVKCPTLKQFNLSYNQLSFVPENLTDVVEKLEQLILEGNKISGICSPLRLKELKILNLSKNHISSLSENFLEACPKVESFSARMNFLAAMPFLPPSMTILKLSQNKFSCIPEAILNLPHLRSLDMSSNDIQYLPGPAHWKSLNLRELLFSHNQISILDLSEKAYLWSRVEKLHLSHNKLKEIPPEIGCLENLTSLDVSYNLELRSFPNEMGKLSKIWDLPLDELHLNFDFKHIGCKAKDIIRFLQQRLKKAVPYNRMKLMIVGNTGSGKTTLLQQLMKTKKSDLGMQSATVGIDVKDWPIQIRDKRKRDLVLNVWDFAGREEFYSTHPHFMTQRALYLAVYDLSKGQAEVDAMKPWLFNIKARASSSPVILVGTHLDVSDEKQRKACMSKITKELLNKRGFPAIRDYHFVNATEESDALAKLRKTIINESLNFKIRDQLVVGQLIPDCYVELEKIILSERKNVPIEFPVIDRKRLLQLVRENQLQLDENELPHAVHFLNESGVLLHFQDPALQLSDLYFVEPKWLCKIMAQILTVKVEGCPKHPKGIISRRDVEKFLSKKRKFPKNYMSQYFKLLEKFQIALPIGEEYLLVPSSLSDHRPVIELPHCENSEIIIRLYEMPYFPMGFWSRLINRLLEISPYMLSGRERALRPNRMYWRQGIYLNWSPEAYCLVGSEVLDNHPESFLKITVPSCRKGCILLGQVVDHIDSLMEEWFPGLLEIDICGEGETLLKKWALYSFNDGEEHQKILLDDLMKKAEEGDLLVNPDQPRLTIPISQIAPDLILADLPRNIMLNNDELEFEQAPEFLLGDGSFGSVYRAAYEGEEVAVKIFNKHTSLRLLRQELVVLCHLHHPSLISLLAAGIRPRMLVMELASKGSLDRLLQQDKASLTRTLQHRIALHVADGLRYLHSAMIIYRDLKPHNVLLFTLYPNAAIIAKIADYGIAQYCCRMGIKTSEGTPGFRAPEVARGNVIYNQQADVYSFGLLLYDILTTGGRIVEGLKFPNEFDELEIQGKLPDPVKEYGCAPWPMVEKLIKQCLKENPQERPTSAQVFDILNSAELVCLTRRILLPKNVIVECMVATHHNSRNASIWLGCGHTDRGQLSFLDLNTEGYTSEEVADSRILCLALVHLPVEKESWIVSGTQSGTLLVINTEDGKKRHTLEKMTDSVTCLYCNSFSKQSKQKNFLLVGTADGKLAIFEDKTVKLKGAAPLKILNIGNVSTPLMCLSESTNSTERNVMWGGCGTKIFSFSNDFTIQKLIETRTSQLFSYAAFSDSNIITVVVDTALYIAKQNSPVVEVWDKKTEKLCGLIDCVHFLREVMVKENKESKHKMSYSGRVKTLCLQKNTALWIGTGGGHILLLDLSTRRLIRVIYNFCNSVRVMMTAQLGSLKNVMLVLGYNRKNTEGTQKQKEIQSCLTVWDINLPHEVQNLEKHIEVRKELAEKMRRTSVE
chain 2: MDPFLVLLHSVSSSLSSSELTELKFLCLGRVGKRKLERVQSGLDLFSMLLEQNDLEPGHTELLRELLASLRRHDLLRRVDDFEAGAAAGAAPGEEDLCAAFNVICDNVGKDWRRLARQLKVSDTKIDSIEDRYPRNLTERVRESLRIWKNTEKENATVAHLVGALRSCQMNLVADLVQEVQQARDLQNRSGAMSPMSWNSDASTSEAS

Variants of: B1
Experiment: ELISA (anti-Flag capture, anti-V5 detection); 15 μg of cell extract loaded in each well; parent: 0.61; read off a plot

Going from chain 1 K544E to chain 1 T1410M, the response rises from roughly 1.2 anti-V5/Total LRRK2 to roughly 1.7 anti-V5/Total LRRK2.

Going from chain 1 R1441C to chain 1 A211V, the response rises from roughly 0.75 anti-V5/Total LRRK2 to roughly 0.91 anti-V5/Total LRRK2.

Going from chain 1 G2019S to chain 1 I2020T, the response falls from roughly 1.2 anti-V5/Total LRRK2 to roughly 0.77 anti-V5/Total LRRK2.

Variants of: B1
Experiment: co-immunoprecipitation (M2-Flag resin), quantified Western blot band intensity; HEK293T cells; Flag-LRRK2 and V5-FADD at a ratio of 4:1; three independent experiments; parent: 1; read off a plot

First: chain 1 K544E
Second: chain 1 T1410M
The response of the first is lower: ~1 norm. to Flag IP for the first, ~2 norm. to Flag IP for the second.

First: chain 1 R1441C
Second: chain 1 A211V
The response of the first is lower: ~1.1 norm. to Flag IP for the first, ~1.7 norm. to Flag IP for the second.

First: chain 1 G2019S
Second: chain 1 I2020T
The response of the first is lower: ~1.3 norm. to Flag IP for the first, ~1.6 norm. to Flag IP for the second.
